In patent publication US20250333514A1 (CDR LIFE, published 2025):
Where a chain is given by its changes, count along the chain named. Blank lines part the entries; values can stand above or below the binder they belong to.

Target: T1, HLA-A*02:01/PRAME antigen (recombinant, … on HLA-A*02:01) (human, Complex biotinylated for SPR capture; site of biotin and any tag not stated, not in the letters.)
T1 construct: also called PRAME target; pMHC
Experiment: SPR (Biacore 8K), biotinylated pMHC captured, Fab-scFv analyte, single-cycle kinetics, 1:1 fit
Method: Recombinantly produced hits in Fab-scFv format, as described in Example 4, were evaluated for their ability to bind HLA-A*02:01/PRAME antigen. Binding characterization was performed by surface plasmon resonance (SPR) using a Biacore™ 8k (Cytiva) device. Briefly, 3000 RU of Biotin CAPture reagent (Cytiva) was immobilized on a Series S Sensor Chip CAP (Cytiva) and the biotinylated ligand HLA-A*02:01/PRAME (SEQ ID NO: 68) was diluted in HPS-EP+ running buffer (TEKNOVA) and captured for 300 s at a flow rate of 2 μL/min at flow cell 2 resulting in a ligand capture level of >100 RU. Subsequently, at least three consecutive analyte injections were performed at suitable concentrations applying the single-cycle-kinetics mode at a flow rate of 30 μL/min with an association time of 90 s and the dissociation time set to >400 s. The chip surface was regenerated according to the manufacturer's instructions. After reference flow cell signal and blank injections subtraction, the data was fit to a 1:1 Langmuir binding model to determine the association rate constant kₐ and dissociation rate constant kd and calculate the equilibrium dissociation constant KD (kd/kₐ), also denoted as affinity, using the Biacore™ Insight Evaluation software.

Kd: 0.23 nM
B1: M2638 (bispecific antibody)
heavy: EVQLVESGGGLVQPGGSLRLSCAASGFTFSTYAMNWVRQAPGKGLEWVGRIRSKYNNYATYYADSVKGRFTISRDDSKNTLYLQMNSLRAEDTAVYYCVRHGNFGDSYVSWFAYWGQGTLVTVSSASTKGPSVFPLAPSSKSTSGGTAALGCLVKDYFPEPVTVSWNSGALTSGVHTFPAVLQSSGLYSLSSVVTVPSSSLGTQTYICNVNHKPSNTKVDKKVEPKSCGGGGSQEQLVESGGGLVQPGGSLKLSCKASGFDFSTYGVSWVRQAPGKGLEWIGYIDPVYGSTYYASWVNGRFTISSHNAQNTLYLQLNSLTAADTATYFCVRDLYAGSSGYYMIYSLWGPGTLVTVSSGGGGSGGGGSGGGGSGGGGSELVMTQTPSSVSAAVGGTVTIKCQSSQSVYNNLLGWYQQKPGQPPKLLIYSASTLASGVPSRFSGSGSGTEFTLTISGVQADDAASYYCQGTYYNGDWYYPFGGGTEVVVK
light: QAVVTQEPSLTVSPGGTVTLTCGSSTGAVTTSNYANWVQQKPGKSPRGLIGGTNKRAPGVPARFSGSLLGGKAALTISGAQPEDEADYYCALWYSNHWVFGGGTKLTVLGQPKAAPSVTLFPPSSEELQANKATLVCLISDFYPGAVTVAWKADSSPVKAGVETTTPSKQSNNKYAASSYLSLTPEQWKSHRSYSCQVTHEGSTVEKTVAPTECS
notes: Monovalent Fab-scFv: anti-CD3 Fab with the rabbit anti-pMHC scFv on the C-terminus of the Fab heavy chain; also called rabbit hit M2638; HLA-A*02:01/PRAMExCD3 Fab-scFv

Kd: 0.04 nM
B2: M3202 (bispecific antibody)
heavy: EVQLVESGGGLVQPGGSLRLSCAASGFTFSTYAMNWVRQAPGKGLEWVGRIRSKYNNYATYYADSVKGRFTISRDDSKNTLYLQMNSLRAEDTAVYYCVRHGNFGDSYVSWFAYWGQGTLVTVSSASTKGPSVFPLAPSSKSTSGGTAALGCLVKDYFPEPVTVSWNSGALTSGVHTFPAVLQSSGLYSLSSVVTVPSSSLGTQTYICNVNHKPSNTKVDKKVEPKSCGGGGSDIQMTQSPSSLSASVGDRVTITCRSSQSVYNNLLGWYQQKPGKAPKLLIYSASTLASGVPSRFSGSGSGTDFTLTISSLQPEDSATYYCQGTYYTGDWYYPFGCGTKVEIKGGGGSGGGGSGGGGSGGGGSQVQLVESGGGSVQPGRSLRLSCAASGFDFSTYGVSWVRQAPGKCLEWIGYIDPVYGSTHYADSVKGRFTISRDNSKNTLYLQMNSLRAEDTASYYCVRDLYAGSSGYYMIYSLWGQGTSVTVSS
light: B1 light
notes: Humanized variant of M2638, monovalent Fab-scFv

Kd: 0.09 nM
B3: M3283 (bispecific antibody)
heavy: B2 heavy with D392T
light: B1 light
notes: as for B2

Kd: 0.05 nM
B4: M3293 (bispecific antibody)
heavy: B2 heavy with L288R
light: B1 light
notes: as for B2

Kd: 0.27 nM
B5: M3284 (bispecific antibody)
heavy: B2 heavy with D392T, F393V
light: B1 light
notes: as for B2

Kd: 1.3 nM
B6: M3285 (bispecific antibody)
heavy: B2 heavy with V461A
light: B1 light
notes: as for B2

Kd: 1.5 nM
B7: M3286 (bispecific antibody)
heavy: B2 heavy with D392T, V461A
light: B1 light
notes: as for B2

Kd: 0.66 nM
B8: M2913 (bispecific antibody)
heavy: B2 heavy with R257Q, S317F, T328N, Q365E, R380G, H423Y, D426S, S427W, K429N
light: B1 light
notes: as for B2

Kd: 0.04 nM
B9: M3182 (bispecific antibody)
heavy: B2 heavy with S317F
light: B1 light
notes: as for B2
